T1: BFA2 (MBP-BFA2, mature) (Arabidopsis thaliana, UniProt O65567 62-904)
T1 sequence: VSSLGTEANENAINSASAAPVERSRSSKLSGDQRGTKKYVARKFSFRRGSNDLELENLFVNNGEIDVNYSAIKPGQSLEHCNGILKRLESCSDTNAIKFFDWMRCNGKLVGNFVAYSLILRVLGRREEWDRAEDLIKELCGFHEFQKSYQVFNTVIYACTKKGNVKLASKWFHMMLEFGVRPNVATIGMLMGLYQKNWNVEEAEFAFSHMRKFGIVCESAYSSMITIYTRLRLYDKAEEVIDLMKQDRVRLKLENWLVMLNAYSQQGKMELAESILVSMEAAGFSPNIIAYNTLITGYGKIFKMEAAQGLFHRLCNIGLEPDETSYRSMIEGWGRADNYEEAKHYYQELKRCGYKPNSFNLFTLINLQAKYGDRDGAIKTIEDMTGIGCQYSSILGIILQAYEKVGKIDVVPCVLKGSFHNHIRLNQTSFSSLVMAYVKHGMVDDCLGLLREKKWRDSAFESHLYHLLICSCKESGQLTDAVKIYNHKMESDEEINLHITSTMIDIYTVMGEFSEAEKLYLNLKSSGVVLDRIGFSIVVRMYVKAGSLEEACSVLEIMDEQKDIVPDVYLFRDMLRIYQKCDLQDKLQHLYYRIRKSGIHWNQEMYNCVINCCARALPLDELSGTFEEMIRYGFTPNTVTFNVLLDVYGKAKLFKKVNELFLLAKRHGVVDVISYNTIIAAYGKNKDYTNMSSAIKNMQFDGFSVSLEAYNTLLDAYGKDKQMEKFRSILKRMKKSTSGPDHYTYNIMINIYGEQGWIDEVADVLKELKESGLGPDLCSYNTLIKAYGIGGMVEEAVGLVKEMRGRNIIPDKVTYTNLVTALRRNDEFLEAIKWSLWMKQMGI


How the values were obtained:
BFA2 (MBP-BFA2, mature) [1] = molecular target: T1, BFA2 (MBP-BFA2, mature); test: EMSA; 1 ug tRNA, 2 mM Mg2+; complex detected at protein 3x molar over RNA; 10 mM HEPES pH 7.5, 20 mM KCl, 2 mM MgCl2, 1 mM DTT, 5% glycerol, 1 ug yeast tRNA, 20 C, 30 min; 6% native PAGE with 2.5% glycerol; conditions: protein: recombinant; tags: MBP (pMAL-c5x); label: 5'-biotin on probe; single strand
BFA2 (MBP-BFA2, mature) [2] = molecular target: T1, BFA2 (MBP-BFA2, mature); test: competition; unlabeled ndhA RNA; 1000-fold excess does not affect complex with labeled atpF sRNA; 10 mM HEPES pH 7.5, 20 mM KCl, 2 mM MgCl2, 1 mM DTT, 5% glycerol, 1 ug yeast tRNA, 20 C, 30 min; 6% native PAGE with 2.5% glycerol; conditions: protein: recombinant; tags: MBP (pMAL-c5x); label: none; single strand

| Binder | binding result (BFA2 (MBP-BFA2, mature) [1]) | binding result (BFA2 (MBP-BFA2, mature) [2]) |
| --- | --- | --- |
| UAUAGGCAUUAUUUUUUUUUCU (ssRNA) [atpF sRNA (atpF-atpA intergenic)] | binds |  |
| UUAUGACGAUACUCGGUAGCAUAGAUAUAA (ssRNA) [ndhA 5' end sRNA] |  | no binding |

Reference: article PMC6474325, “PPR Protein BFA2 Is Essential for the Accumulation of the atpH/F Transcript in Chloroplasts”
